Measured values as given in paper PMC6368585, “Chaperone activation and client binding of a 2-cysteine peroxiredoxin” (Nature Communications, 2019).

Legend:
[1] = target: luciferase (thermally unfolded model client) [luciferase: P08659]
[2] = target: T1, luciferase (thermally unfolded model client) (UniProt P08659 1-550 = luciferase); assay: AUC; analytical ultracentrifugation of mTXNPxred with luciferase (Supplemental Methods); conditions: both partners purified
T1 construct: luciferase, 63 kDa; cross-links were mapped onto the whole-chain model pdb 1LCI; source: bought: Promega
T1 sequence (P08659 whole entry): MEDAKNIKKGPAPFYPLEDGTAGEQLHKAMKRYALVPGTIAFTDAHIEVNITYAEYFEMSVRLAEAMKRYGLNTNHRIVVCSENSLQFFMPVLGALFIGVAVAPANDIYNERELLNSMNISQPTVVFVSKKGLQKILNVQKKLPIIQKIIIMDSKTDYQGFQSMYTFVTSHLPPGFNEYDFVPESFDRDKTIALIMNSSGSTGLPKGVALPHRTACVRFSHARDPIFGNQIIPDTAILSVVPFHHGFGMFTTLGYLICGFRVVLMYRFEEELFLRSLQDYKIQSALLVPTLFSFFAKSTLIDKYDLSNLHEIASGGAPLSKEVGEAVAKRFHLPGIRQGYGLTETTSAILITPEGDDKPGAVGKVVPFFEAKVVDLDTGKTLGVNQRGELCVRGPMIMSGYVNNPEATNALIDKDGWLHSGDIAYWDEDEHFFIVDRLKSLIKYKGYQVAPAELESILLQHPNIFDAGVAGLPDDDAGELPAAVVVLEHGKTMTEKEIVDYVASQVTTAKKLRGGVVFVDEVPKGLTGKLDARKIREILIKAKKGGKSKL

[3] = target: the molecule itself; assay: cross-linking; quantitative cross-linking (qCL) with isotopically light or heavy DSS (0.1 mM), each condition (Red or Ox, 30 °C or 42 °C) cross-linked apart and mixed 1:1; log2(H/L) of inter-protein K122/K123 peptide pairs across the dimer-dimer (A-type) interface; decamer to dimers

luciferase (thermally unfolded model client) [luciferase: P08659], sequence (P08659 whole entry): as above

Molecule | chaperone activity: suppression of the thermal aggregation of luciferase (0.1 µM, 42 °C, light scattering at 360 nm), different ratios up to a 40-fold molar excess, compared to wt-mTXNPx (% less active than wt-mTXNPx) [1] | stoichiometry N [2] | log2(H/L) of inter-protein cross-link Pep1-Pep1, heavy Red (42 °C) over light Red (30 °C) [3] [log2 ratio] | log2(H/L) of inter-protein cross-link Pep1-Pep2, heavy Red (30 °C) over light Red (42 °C) [3] [log2 ratio] | log2(H/L) of inter-protein cross-link Pep1-Pep2, heavy Red (42 °C) over light Red (30 °C) [3] [log2 ratio]
∆5mTXNPx, N-terminal truncation mutant lacking the first 5 residues of the mature protein (reduced) (from UniProt A0A6L0XFC6 33-226) (enzyme) | > 70 | – | – | – | –
reduced, decameric Leishmania infantum mitochondrial 2-Cys peroxiredoxin mTXNPx (mTXNPxred) (enzyme, Reduced form, decamer of five dimers; also called Prx1m; wt mTXNPx; source: E. coli BL21(DE3), purified; His tag removed with thrombin; reduced with 5 mM DTT; not shown: His6, N-terminal, cleaved; copies: 10) GSHMNLDYQMYRTATVREAAPQFSGQAVVNGAIKDINMNDYKGKYIVLFFYPMDFTFVCPTEIIAFSDRHADFEKLNTQVVAVSCDSVYSHLAWVNTPRKKGGLGEMHIPVLADKSMEIARDYGVLIEESGIALRGLFIIDKKGILRHSTINDLPVGRNVDEALRVLEAFQYADENGDAIPCGWKPGQPTLDTTKAGEFFEKNM | – | 1 luciferase per mTXNPx decamer | -2.32 | 1.4 | -1.55
